Measurements published in publication PMC10632456, “Cryo-EM structures of human magnesium channel MRS2 reveal gating and regulatory mechanisms” (Nature Communications, 2023).

Molecular target: the molecule itself
Test: cryo-EM structure; purified MRS2 at about 0.5 mg/ml in 20 mM HEPES, 150 mM NaCl, 40 mM MgCl2, 0.003% LMNG, pH 7.3; C5 and C1 reconstructions

B1: human MRS2 (Mitochondrial RNA Splicing 2 magnesium channel) (natural protein, UniProt Q9HD23 71-443, looked up)
chain: TSDVSQATLASVAPVFTVTKFDKQGNVTSFERKKTELYQELGLQARDLRFQHVMSITVRNNRIIMRMEYLKAVITPECLLILDYRNLNLEQWLFRELPSQLSGEGQLVTYPLPFEFRAIEALLQYWINTLQGKLSILQPLILETLDALVDPKHSSVDRSKLHILLQNGKSLSELETDIKIFKESILEILDEEELLEELCVSKWSDPQVFEKSSAGIDHAEEMELLLENYYRLADDLSNAARELRVLIDDSQSIIFINLDSHRNVMMRLNLQLTMGTFSLSLFGLMGVAFGMNLESSLEEDHRIFWLITGIMFMGSGLIWRRLLSFLGRQLEAPLPPMMASLPKKTLLADRSMELKNSLRLDGLGSGRSILTNR
notes: MRS2, human, UniProt Q9HD23; The full-length precursor was expressed; No step that removes the tag is described; also called HsMRS2; MRS2-Mg2+
stoichiometry N: 5
